Target: binding site for alpha-melanocyte stimulating hormone on mouse melanoma cells (mouse)
Experiment: binding assay using mouse melanoma cells (Bagutti 1992); ratio against full-length natural alpha-MSH

Row | relative binding (Kd of full-length natural hormone divided by Kd of the oxime analog) | Substance
1 | 0.82 | control monooxime of the alpha-MSH analog Nle-Asp-His-(D)Phe-Arg-Trp-Lys-amide (aminooxyacetyl peptide oximated with acetaldehyde)
2 | 3.33 | dioxime formed between the aminooxyacetyl peptide (AOA-Nle-Asp-His-(D)Phe-Arg-Trp-Lys-amide) and glyoxal (O=CH-CH=O)

— patent US20050025740A1
